Experimental data reported in patent US20060281899A1, “Mutants of biotin binding protein” (priority 2002, published 2006).
Read-outs that look alike come from different tables or passages of the source.

Assay: IAsys optical biosensor, AVR4/5 forms binding to 2-iminobiotin surface
Conditions: for Kd: 20° C.
Method: The biotin-binding characteristics of the different avidins were studied using an IAsys optical biosensor at 20° C. The reversibility of binding and binding affinities to the 2-iminobiotin surface in 50 mM borate buffer (pH 9.5, 1 M NaCl) were measured as previously reported (Laitinen, O. H., Hytönen, V. P., Ahlroth, M. K., Pentikäinen, O. T., Gallagher, C., Nordlund, H. R., Ovod, V., Marttila, A. T., Porkka, E., Heino, S., Johnson, M. S., Airenne, K. J. & Kulomaa, M. S. (2002) Biochem. J. 363, 609-617).
Briefly, The 2-iminobiotin ligand was immobilized onto the carboxymethyldextran surface of a cuvette using N-hydroxysuccinimide activation. Binding of various concentrations of avidin or avidin mutants onto 2-iminobiotinylated surface were measured in a 50 mM borate buffer (pH 9.5) containing 1 M NaCl at 20° C. The iminobiotin cuvettes were regenerated with 20 mM HCl. The kinetic rate constants for association (kass) and dissociation (kdiss) were calculated using the Fast Fit program package (Affinity Sensors). The obtained rate constants were used to calculate Kd(rel) according to Kd=kdiss/kass. Equilibrium data obtained from measurements with different protein concentrations were used to calculate the dissociation constant Kd(eq).

- kass: (7.0 ± 2.1) × 10^3 M^−1s^−1
- kdiss: (1.6 ± 1.4) × 10^−3 s^−1
- Kd (50 mM borate pH 9.5, 1 M NaCl, read-out: Kd detected from the equilibrium response data): 160 nM
- Kd (pH 9.5, 1 M NaCl, read-out: Kd detected directly from the binding curves): 230 nM
B1: AVR4/5: Recombinant chicken avidin-related protein 4/5 (AVR4 and AVR5 identical in coding sequence) (protein, UniProt P56734 25-150, looked up)
Avidin-related protein 4/5: ARKCSLTGKWTNNLGSIMTIRAVNSRGEFTGTYLTAVADNPGNITLSPLLGIQHKRASQPTFGFTVHWNFSESTTVFTGQCFIDRNGKEVLKTMWLLRSSVNDISYDWKATRVGYNNFTRLCTVEE
